Test results taken from patent US12012619B2, “Methods of use for an NADPH-regeneration system based on a monomeric isocitrate dehydrogenase” (INDUSTRY FOUNDATION OF CHONNAM NATIONAL UNIVERSITY, priority 2021, dated 2024).

Columns and labels:
[1] = biological target: T1, CgIDH (Corynebacterium glutamicum, UniProt P50216); assay: Enzyme activity inhibitory effect by α-ketoglutarate on CgIDH; type: biochemical; conditions: 10 mM α-ketoglutarate added; 5 nM CgIDH
T1 construct: His-tag (His6, pET24a-derived LEHHHHHH) (C); made in house; host or cells: E. coli BL21 (DE3)
T1 sequence (P50216 with tags, fused parts or gaps): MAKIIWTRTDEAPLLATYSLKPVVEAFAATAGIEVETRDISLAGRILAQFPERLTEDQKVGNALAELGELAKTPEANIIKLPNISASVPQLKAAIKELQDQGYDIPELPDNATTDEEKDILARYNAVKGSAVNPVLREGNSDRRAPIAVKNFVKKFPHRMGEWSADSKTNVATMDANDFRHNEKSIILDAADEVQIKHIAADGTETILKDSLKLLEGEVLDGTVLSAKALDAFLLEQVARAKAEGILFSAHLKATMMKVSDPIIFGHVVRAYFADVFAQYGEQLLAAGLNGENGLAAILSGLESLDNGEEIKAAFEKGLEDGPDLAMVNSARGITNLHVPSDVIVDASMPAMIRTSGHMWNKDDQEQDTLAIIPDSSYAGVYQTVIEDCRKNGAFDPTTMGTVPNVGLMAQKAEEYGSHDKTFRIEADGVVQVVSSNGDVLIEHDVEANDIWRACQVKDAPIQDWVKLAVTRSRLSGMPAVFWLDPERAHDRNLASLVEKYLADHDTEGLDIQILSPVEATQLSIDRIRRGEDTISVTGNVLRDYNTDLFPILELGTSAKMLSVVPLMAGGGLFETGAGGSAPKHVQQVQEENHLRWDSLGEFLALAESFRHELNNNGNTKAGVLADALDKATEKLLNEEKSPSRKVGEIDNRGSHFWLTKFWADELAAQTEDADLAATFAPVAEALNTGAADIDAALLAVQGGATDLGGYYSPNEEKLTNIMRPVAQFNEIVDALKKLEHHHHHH
Experimental: (§1) In order to confirm an enzyme activity inhibitory effect by α-ketoglutarate, which is an enzyme reaction product of the recombinant protein produced in the present invention, a reaction product, in which 5 nM of CgIDH and 5 nM AvIDH were each added to a reaction solution containing 100 mM potassium phosphate buffer (pH 7.4), 0.8 mM manganese sulfate, 40 mM DL-isocitric acid, and 0.5 mM NADP, was prepared. Thereafter, α-ketoglutarate was added for each concentration to proceed the reaction as described in Example 5, and the degree of increase of NADPH was measured. Here, an experimental group to which α-ketoglutarate was not added was used as a control group.

[2] = biological target: T2, AvIDH (Azotobacter vinelandii, UniProt P16100); assay: Enzyme activity inhibitory effect by α-ketoglutarate on AvIDH; type: biochemical; conditions: 20 mM α-ketoglutarate added; 5 nM AvIDH
T2 construct: His-tag (His6, pET24a-derived LEHHHHHH) (C); made in house; host or cells: E. coli BL21 (DE3)
T2 sequence (P16100 with tags, fused parts or gaps): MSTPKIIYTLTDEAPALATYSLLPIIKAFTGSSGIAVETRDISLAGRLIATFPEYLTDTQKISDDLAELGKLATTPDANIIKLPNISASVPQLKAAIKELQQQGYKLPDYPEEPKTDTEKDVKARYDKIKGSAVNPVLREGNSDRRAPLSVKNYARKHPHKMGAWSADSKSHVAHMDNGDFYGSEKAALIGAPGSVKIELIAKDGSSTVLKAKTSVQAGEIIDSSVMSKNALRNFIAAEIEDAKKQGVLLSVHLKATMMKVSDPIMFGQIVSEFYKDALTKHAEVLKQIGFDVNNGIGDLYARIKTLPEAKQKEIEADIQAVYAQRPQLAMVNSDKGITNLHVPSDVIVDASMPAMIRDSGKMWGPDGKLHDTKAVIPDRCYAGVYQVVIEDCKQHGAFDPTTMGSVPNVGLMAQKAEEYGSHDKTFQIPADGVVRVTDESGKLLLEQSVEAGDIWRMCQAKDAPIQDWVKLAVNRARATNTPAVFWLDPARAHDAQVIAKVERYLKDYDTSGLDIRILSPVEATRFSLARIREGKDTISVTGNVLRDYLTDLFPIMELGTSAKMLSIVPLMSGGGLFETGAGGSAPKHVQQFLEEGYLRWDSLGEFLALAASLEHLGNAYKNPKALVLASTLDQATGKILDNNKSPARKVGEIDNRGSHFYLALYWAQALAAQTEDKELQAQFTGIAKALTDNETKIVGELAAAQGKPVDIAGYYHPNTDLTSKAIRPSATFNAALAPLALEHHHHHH
Experimental: as §1

[3] = test system: NADPH regeneration; assay: Specific activity analysis of recombinant IDH protein (NADPH increase measured by fluorescence); type: biochemical; conditions: 5 nM enzyme; for specific activity: 100 mM potassium phosphate buffer pH 7.4, 0.8 mM MnSO4, 0.8 mM DL-isocitric acid, 0.5 mM NADP+
Experimental: In order to confirm the degree of NADPH regeneration by the activity of the IDH recombinant protein, CgIDH and AvIDH were each added to a reaction solution containing 100 mM potassium phosphate buffer (pH 7.4), 0.8 mM manganese sulfate (MnSO4), 0.8 mM DL-isocitric acid, and 0.5 mM NADP+ so that the final concentrations were 5 nM, and the degree of increase of NADPH depending on the enzyme activity was measured with a spectrophotometer. When fluorescence was measured using a spectrophotometer, an excitation wavelength was set to 350 nm and an emission wavelength was set to 450 nm, and the measurement results are shown in FIG. 7.

[4] = test system: NADPH regeneration; assay: Kinetic constant analysis of purified recombinant protein; type: biochemical; conditions: wild-type CgIDH and AvIDH parameters as control groups
Experimental: The analysis of kinetic properties related to an enzyme activity of the recombinant protein, that is, a kinetic constant, was performed by the following procedure.
The analysis of kinetic activity for each of the recombinant proteins purified in Example 2 was performed based on the method described in Chen, R. & Yang, H. Biochemistry and Biophysics, 383(2):238-245 (2000); and Watanabe, S. Microbiology 151(4):1083-1094 (2005).
Here, a Km (uM) value representing the affinity of the enzyme to the substrate as a reaction constant used in enzyme kinetics, a Kcat(S-1) value, which means the metabolic turnover number of the enzyme, and a Kcat/Km (S-1, M-1) value representing a reaction efficiency of the enzyme, were determined.

[5] = biological target: cytochrome P450 BM3 (Priestia megaterium, UniProt P14779); assay: Coupling reaction with cytochrome P450 BM3, HPLC analysis of hydroxylation product of substrate; type: biochemical, Bacillus megaterium; conditions: coupling reaction 5 min; control = NADPH itself added; CgIDH 10 nM or AvIDH 5 nM, 500 nM P450 BM3, 2 mM omeprazole
Chain of cytochrome P450 BM3 (P14779 whole entry): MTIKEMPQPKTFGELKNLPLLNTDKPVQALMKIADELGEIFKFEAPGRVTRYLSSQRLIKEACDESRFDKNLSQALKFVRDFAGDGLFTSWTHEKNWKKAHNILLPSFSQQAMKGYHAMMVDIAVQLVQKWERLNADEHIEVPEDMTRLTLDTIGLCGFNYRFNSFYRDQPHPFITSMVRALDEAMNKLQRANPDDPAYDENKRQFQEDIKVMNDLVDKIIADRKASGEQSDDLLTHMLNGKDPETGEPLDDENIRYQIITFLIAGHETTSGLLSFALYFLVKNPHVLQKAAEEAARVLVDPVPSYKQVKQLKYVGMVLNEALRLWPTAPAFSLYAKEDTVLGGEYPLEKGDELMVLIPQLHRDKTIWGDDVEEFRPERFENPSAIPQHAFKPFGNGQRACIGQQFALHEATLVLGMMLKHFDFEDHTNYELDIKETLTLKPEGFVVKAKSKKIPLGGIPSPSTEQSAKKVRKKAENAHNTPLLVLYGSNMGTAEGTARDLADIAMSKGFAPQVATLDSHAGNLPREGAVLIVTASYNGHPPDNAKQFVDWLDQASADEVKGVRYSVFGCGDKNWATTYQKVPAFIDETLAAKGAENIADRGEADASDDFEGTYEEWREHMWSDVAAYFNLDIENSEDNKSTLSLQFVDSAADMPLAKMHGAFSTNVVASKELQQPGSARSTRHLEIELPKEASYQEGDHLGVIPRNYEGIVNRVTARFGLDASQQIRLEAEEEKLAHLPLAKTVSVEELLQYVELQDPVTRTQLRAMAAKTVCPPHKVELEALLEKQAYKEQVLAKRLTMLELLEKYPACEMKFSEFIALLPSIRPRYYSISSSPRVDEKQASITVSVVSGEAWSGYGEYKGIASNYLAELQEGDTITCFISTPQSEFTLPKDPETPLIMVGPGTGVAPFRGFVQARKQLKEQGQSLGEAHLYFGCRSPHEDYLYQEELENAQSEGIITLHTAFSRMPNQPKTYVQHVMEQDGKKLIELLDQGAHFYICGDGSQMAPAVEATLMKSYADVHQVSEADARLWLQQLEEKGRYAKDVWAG
Experimental: In the above reaction, in order to confirm that the activity of cytochrome P450 BM3 is maintained by substantial NADPH regeneration, and the hydroxylation reaction of omeprazole, which is one of the substrates, occurs, to 1 mL of a reaction solution containing 100 mM potassium phosphate buffer (pH 7.4), 0.8 mM manganese sulfate, 40 mM DL-isocitric acid, 0.5 mM NADP, and 2 mM omeprazole, CgIDH and cytochrome P450 BM3 were added so that the final concentrations were 10 nM and 500 nM, respectively, and AvIDH and cytochrome P450 BM3 were added so that the final concentrations were 5 nM and 500 nM, respectively, to prepare a reaction product.
The reaction mixture was recovered by 90 uL each time, mixed with 90 uL of methanol to stop the reaction, and then HPLC analysis was performed. Specific HPLC performance conditions are as follows: • HPLC was performed using an Alliance HPLC system (Waters). • A SunFire 18C column was used as a column • The amount of sample loading was set to 20 uL. • As a HPLC mobile phase, 30% acetonitrile was flowed at a flow rate of 1 mL/min, and an eluate was measured with ultraviolet (UV) light at 302 nm. • Analysis was performed using an Empower 3 (Waters) program. […]

[6] = Storage stability of recombinant protein; type: physicochemical; conditions: storage at 4° C. for 30 days; 5 nM enzyme
Experimental: In order to evaluate the stability of the recombinant protein produced in the present invention, after a certain period of time, each of the recombinant proteins stored at 4° C. was added to a reaction solution containing 100 mM potassium phosphate buffer (pH 7.4), 0.8 mM manganese sulfate, 40 mM DL-isocitric acid, and 0.5 mM NADP+ so that the final concentration was 5 nM, the reaction was proceeded as described in Example 5, and the degree of increase of NADPH was measured.

O=C(O)CCC(=O)C(=O)O [α-ketoglutarate]
reduction of enzyme activity [1]: 30%
reduction of enzyme activity [2]: 30%

B1: AvIDH: recombinant monomeric isocitrate dehydrogenase from Azotobacter vinelandii, SEQ ID NO: 2, C-terminal histidine tag (protein)
chain: MSTPKIIYTLTDEAPALATYSLLPIIKAFTGSSGIAVETRDISLAGRLIATFPEYLTDTQKISDDLAELGKLATTPDANIIKLPNISASVPQLKAAIKELQQQGYKLPDYPEEPKTDTEKDVKARYDKIKGSAVNPVLREGNSDRRAPLSVKNYARKHPHKMGAWSADSKSHVAHMDNGDFYGSEKAALIGAPGSVKIELIAKDGSSTVLKAKTSVQAGEIIDSSVMSKNALRNFIAAEIEDAKKQGVLLSVHLKATMMKVSDPIMFGQIVSEFYKDALTKHAEVLKQIGFDVNNGIGDLYARIKTLPEAKQKEIEADIQAVYAQRPQLAMVNSDKGITNLHVPSDVIVDASMPAMIRDSGKMWGPDGKLHDTKAVIPDRCYAGVYQVVIEDCKQHGAFDPTTMGSVPNVGLMAQKAEEYGSHDKTFQIPADGVVRVTDESGKLLLEQSVEAGDIWRMCQAKDAPIQDWVKLAVNRARATNTPAVFWLDPARAHDAQVIAKVERYLKDYDTSGLDIRILSPVEATRFSLARIREGKDTISVTGNVLRDYLTDLFPIMELGTSAKMLSIVPLMSGGGLFETGAGGSAPKHVQQFLEEGYLRWDSLGEFLALAASLEHLGNAYKNPKALVLASTLDQATGKILDNNKSPARKVGEIDNRGSHFYLALYWAQALAAQTEDKELQAQFTGIAKALTDNETKIVGELAAAQGKPVDIAGYYHPNTDLTSKAIRPSATFNAALAPLALEHHHHHH
modifications: C-terminal His tag; AvIDH protein
specific activity [3]: 28 U/mg
Kcat compared with the wild-types [4]: slight decrease
elution amount of 5′-hydroxyomeprazole based on the elution amount produced in the control group [5]: 114%
enzyme activity after storage [6]: did not decrease

B2: CgIDH: recombinant monomeric isocitrate dehydrogenase from Corynebacterium glutamicum, SEQ ID NO: 1, C-terminal histidine tag (protein)
chain: MAKIIWTRTDEAPLLATYSLKPVVEAFAATAGIEVETRDISLAGRILAQFPERLTEDQKVGNALAELGELAKTPEANIIKLPNISASVPQLKAAIKELQDQGYDIPELPDNATTDEEKDILARYNAVKGSAVNPVLREGNSDRRAPIAVKNFVKKFPHRMGEWSADSKTNVATMDANDFRHNEKSIILDAADEVQIKHIAADGTETILKDSLKLLEGEVLDGTVLSAKALDAFLLEQVARAKAEGILFSAHLKATMMKVSDPIIFGHVVRAYFADVFAQYGEQLLAAGLNGENGLAAILSGLESLDNGEEIKAAFEKGLEDGPDLAMVNSARGITNLHVPSDVIVDASMPAMIRTSGHMWNKDDQEQDTLAIIPDSSYAGVYQTVIEDCRKNGAFDPTTMGTVPNVGLMAQKAEEYGSHDKTFRIEADGVVQVVSSNGDVLIEHDVEANDIWRACQVKDAPIQDWVKLAVTRSRLSGMPAVFWLDPERAHDRNLASLVEKYLADHDTEGLDIQILSPVEATQLSIDRIRRGEDTISVTGNVLRDYNTDLFPILELGTSAKMLSVVPLMAGGGLFETGAGGSAPKHVQQVQEENHLRWDSLGEFLALAESFRHELNNNGNTKAGVLADALDKATEKLLNEEKSPSRKVGEIDNRGSHFWLTKFWADELAAQTEDADLAATFAPVAEALNTGAADIDAALLAVQGGATDLGGYYSPNEEKLTNIMRPVAQFNEIVDALKKLEHHHHHH
modifications: C-terminal His tag; CgIDH protein
enzyme activity (enzyme reaction slope) compared with AvIDH at the same amount of protein [3]: higher enzyme activity
specific activity [3]: 57 U/mg
Kcat compared with the wild-types [4]: slight decrease
elution amount of 5′-hydroxyomeprazole based on the elution amount produced in the control group [5]: 126%
enzyme activity after storage [6]: did not decrease
